system: K4 kissing-loop RNA reporter; assay: apparent KD of K4 kissing-loop reporter; higher = weaker reporter binding; settings: Eterna round: R107; input ligand: none
Method: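 RNA-MaP round R107: designed RNA switches with theophylline, tryptophan, arginine or FMN aptamers are transcribed on-chip within common flanks. They are titrated with a labelled K4 kissing-loop RNA reporter in RNA-MaP buffer (100 mM Tris pH 7.5, 80 mM KCl, 4 mM MgCl2), without ligand or with the indicated ligand. Median apparent KD per design.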
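Also: bound reporter read as fluorescence of individual clusters on recovered sequencing chips by microscopy, with normalized cluster intensities fitted with a binding model.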

In order of rising “apparent KD of K4 kissing-loop reporter” value:
1. UUAUAUAAUUAGUCUUUUUUAACAUUAAGUCAGGAUAUCGUAUAUUCGAGAAGGGACACAUGCUAGUGAUGUUAGCUAUUUCUUU [JR_ExcFMNA_Sub017]  30.7 nM
2. AGUGAUGUGGGAAGGAGCGCUACAUGACUUCAGUGAUGUUGAAGUGAUGAUUUAGUGAUGUAGCAGGUAGGUCGCCUAGAUGUUA [KL-XARG-B8]  77.2 nM
3. AAGUGAUGUUGUAGUGAUGUUGUGAUGUUGCAGGAUAUAUAGUGAUGUAGAAGGGUAUGUACUGAUUUUUUUUUUGAGUGAUGUU [awaqmullin]  77.3 nM
4. GGUAUCUAUACAGAUACCAGUCGUACAGCACCAUUACAGGUUAGUGAUGUUAACCUGUACGACCCUUGGCAGCUGUAUAAUAAUA [Theo B Ex t2a]  96.8 nM
5. UGAAAUCGAAUUCCGCGUGCAACGCCAGUAAAGGAUAUCAUCACACUGAGAAGGUUACGAAGCGGAGUGAUGUUCCGCUCUAUCC [theeternabot_sameState_KL_FMN_A_50]  120 nM
6. GGGAGUAGUGCGGCCGCCACUGUGAAAGAAGAAGAAUAUAGUGAUGUUAUAUAGGAAUAAAAGAAUAGGACCGGGCAUUAGAUUU [SSTRyptB.R]  134 nM
7. ACGUAGUUCUAGGAUACCAGCCAAAUAGCCAGGACGAGAGUCCUGGCUGCCAGUGAUGUUGGCCCUUGGCAGCCUAGAUCUUCUU [zmodel 1]  144 nM
8. GGUUGCAGCCCUGCAUCGUGGGUUUAGAGUAAGGAUAUUCGCCAAGGAAGAAGGUACUCUGCAUUGAGUGAUGUUCAAUAAGAUG [theeternabot_sameState_KL_FMN_A_30]  146 nM
9. UGAUAAAGCAGUGAUGUUGCAAGAAAUGAUACCAGUUAAGAAAAGAACCCUUGGCAGCAUAAAGUGCGCUCUAAUGAGUGUGCUU [theophylline a same state]  156 nM
10. GUAGCUUGGCUAGGAUAUUAGCGUAGGAGUGAUGUUCCGACUAGCGAAAGCUAGUCUCACGCUAGUUAAGAAGGAGCCAAGCUAC  175 nM
11. AGCCUAGGAGUCAUUUCCUGCCCGUACGAUACCAGCAUUACCAGUUGCCCUUGGCAGCGUUAUAAGGCCAGUGAUGUUGGCCACU [theeternabot_sameState_KL_Theo_A_22]  185 nM
12. GUUCCCUACAAGGAUACCAGAACGUGUAGUCCGAGCGCUAGUGAUGUUGGCGUCUACCUCUUCCCUUGGCAGCCUGCAAAUCAGU [theeternabot_sameState_KL_Theo_B_48]  236 nM
13. CCUAUCUCAUACGAUACCAGUCAACGAUAUUUUAUCGAUGCCAUCACCGAGUGAUGUUCGGACCCUUGGCAGCGUAUGGGAUAGG [Ex Theophylline B K4 4]  270 nM
14. GCAAAACGCAGUGAUGUUGCGAUCUCGGAAGGAGCGCGUGAAAACGCAGGUAGGUCGCCGAGUCAGUGAGUAUCUCGCUGUUUGC [Arginine A K4 19]  489 nM
15. AGUGAUGUUGAGUUAUCUUAGUGAAGUGAUCGAGGACCGGUACGGCCGCCACUCGAGUGAUGAGUGAGUGAUGUUUGUUUAGUGA [zzymullin]  549 nM
16. UGAUACCAGACGGCCGCCACUUCCGUAAGUCAAAGACUUACCAAGAGAAUCGUCCAGUGAUGUUGGAGGACCGGGUCUGGUAUCU [FiskerMod 7 - Jieux - Exclusion - Tryptophan B]  979 nM

same assay, conditions: Eterna round: R107; input ligand: theophylline 20 uM

In order of rising “apparent KD of K4 kissing-loop reporter” value:
1. UGUCAUUGGUCGGCCGCCACUUCGUGUGGAGUGAUGUUUUGUAGGACGGAUCGAAAGAUCUGUCGAAGGACCGGGACCGAUGACU [FiskerMod 19 - Jieux - Same State - Tryptophan B]  33.5 nM
2. UUAUAUAAUUAGUCUUUUUUAACAUUAAGUCAGGAUAUCGUAUAUUCGAGAAGGGACACAUGCUAGUGAUGUUAGCUAUUUCUUU [JR_ExcFMNA_Sub017]  50.1 nM
3. AAGUGAUGUUGUAGUGAUGUUGUGAUGUUGCAGGAUAUAUAGUGAUGUAGAAGGGUAUGUACUGAUUUUUUUUUUGAGUGAUGUU [awaqmullin]  58.8 nM
4. AGUGAUGUGGGAAGGAGCGCUACAUGACUUCAGUGAUGUUGAAGUGAUGAUUUAGUGAUGUAGCAGGUAGGUCGCCUAGAUGUUA [KL-XARG-B8]  77.5 nM
5. UGACGUUUGGGAAGGAGCGGAAUGUAAUACGGAAUGCGUGGAGAUGCAGUGAUGUUGCAGAUCCAGGUAGGUCGCCCAAGGGACG [Soanina]  79.3 nM
6. AAUGUACAGGGAAGGAGCGUCGUCCAGUGAUGUUGGAGUUAAAUACCAGUGAUGUUGGUUAGGCAGGUAGGUCGCCCUAAAGUAU [#08 K4 Arginine B Exclusion]  80 nM
7. GGGAGUAGUGCGGCCGCCACUGUGAAAGAAGAAGAAUAUAGUGAUGUUAUAUAGGAAUAAAAGAAUAGGACCGGGCAUUAGAUUU [SSTRyptB.R]  113 nM
8. GCCCACAUUAGUGAUACCAGUGGGCACUCACCAGUUCAGUGAUGUUGGACGCAGUGUGGUCACCCUUGGCAGCACCGAUGCCCUU [theeternabot_sameState_KL_Theo_B_32]  122 nM
9. UGUGUUGUUGUGAUGUUUGGUGUUGUAGGGCAGGAUAUCGUAGAGGCGAGAAGGGCUUUUGUGCGGUAUGAGUGAUGUUUGUAGG [svvsmullin]  134 nM
10. AAACAUUGGUCGGAUACCAGCUUGAUCGGAAACGAUCUGCUGGAGUGAUGUUCCAAGUAAAGCCCUUGGCAGCCGACCGAUGAAA [MAT - Same State Theophlline B - Mod of Eli - D17]  143 nM
11. UACUUAUAGUUAUUUCUACAUUUAUUUAGUCAGGAUAUCGAUUAGUCGAGAAGGGACAAUAUCAAGUGAUGUUUGAUAAUUCAAA [JR_ExcFMNA_Sub012]  158 nM
12. GGUUGCAGCCCUGCAUCGUGGGUUUAGAGUAAGGAUAUUCGCCAAGGAAGAAGGUACUCUGCAUUGAGUGAUGUUCAAUAAGAUG [theeternabot_sameState_KL_FMN_A_30]  166 nM
13. GACACUCGGUGAUAAUAACCGUUACGCGAUACCAGCGUAACAGUACGCCCUUGGCAGCGCAGUGAUGUUGCGUGCCGAGUGUGAA [Theo A Ex Mod of Esbiceve]  170 nM
14. GUAGCUUGGCUAGGAUAUUAGCGUAGGAGUGAUGUUCCGACUAGCGAAAGCUAGUCUCACGCUAGUUAAGAAGGAGCCAAGCUAC  181 nM
15. UUUAUUAAGACGGCCGCCACUGAAUCAUAGUGAUGUUAUGAUAAAAUUUUAGAUAAUAAUAACAGCAGGACCGGGUCAAUUAUUA [JR_SSTryptoB_Sub015]  191 nM
16. GCCCUUCAGGUCGGAGUGAUGUUCCAAUGGAAGGAUAUCCGGGCUCGGAGAAGGUCCAAUUGUGUCUUGUUAAGGUGCUCACUAC [theeternabot_sameState_KL_FMN_A_46]  203 nM
17. UGAUACCAGACGGCCGCCACUCCCGUAAGUCAAAGACUUACGAAGAGUAUCGUCCAGUGAUGUUGGAGGACCGGGUCUGGUAUCU [FiskerMod 10 - Jieux - Exclusion - Tryptophan B]  320 nM
18. CCUAUCUCAUACGAUACCAGUCGUCGAGUGAUGUUCGAUUAAAUAAAUUUGCCAAAUAACGACCCUUGGCAGCGUAUGGGAUAGG [Ex Theophylline B K4 16]  334 nM
19. UGUGUUGUUUUGAUGUUUGUUGUAAGUUGGCAGGAUAUCGUAGAGGCGAGAAGGGCUUUUAUGCGUUAUGAGUGAUGUUUGUAGG [ggbgzmullin]  351 nM
20. CACGAUGAAUUCUCUAGGAGUGAUGUUUUUCGAGGACCGGUACGGCCGCCACUCGGACCACGAGCGUGGUAGCGGCGAAAAGACU [qpmullin]  443 nM
21. CCUAUCUCAUACGAUACCAGUCAACGAUAUUUUAUCGAUGCCAUCACCGAGUGAUGUUCGGACCCUUGGCAGCGUAUGGGAUAGG [Ex Theophylline B K4 4]  445 nM
22. GUGUGUGUCGGAGGAUAUGCGAUAGAUGUAGGAGAAUUAGUGAUGUUAGUUAUGGUAGAGAUAGGAGUAGAAGGUUGGUGUGUGU [RHig 3/7 B]  572 nM
23. AGUGAUGUUGAGUUAUCUUAGUGAAGUGAUCGAGGACCGGUACGGCCGCCACUCGAGUGAUGAGUGAGUGAUGUUUGUUUAGUGA [zzymullin]  593 nM
24. GCCGUACGCACGGAUACCAGCACUCGGUGAGUGAUGUUCACGGUGUGGUAUUCACCGGGCUGCCCUUGGCAGCCGUGCGUACGGC  1280 nM

Reference: the supplement of paper PMC9170038
